According to the supplement of paper PMC9112550, “Optimization of the antimicrobial peptide Bac7 by deep mutational scanning” (BMC Biology, 2022):

System: Escherichia coli TOP10
Assay: shrunken log2 fold change of peptide-encoding DNA abundance (4.5 h post-induction vs induction); higher = less antimicrobial activity (less host growth inhibition)
Details: time post-induction: 4.5 h; library: site-saturation at positions 5, 18, 19, 20
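Note: peptides expressed intracellularly from a pBAD plasmid library in pooled LB shake-flask culture, induced with 0.3% L-arabinose, DNA abundance read by NGS, three biological replicates, DESeq2 with apeglm shrinkage.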

| Sequence | shrunken log2 fold change |
| --- | --- |
| RRIRIRPPRLPRPRPRPKNNPRP | -0.878 |
| RRIRIRPPRLPRPRPRPKPEPRP | 0.0874 |
| RRIRIRPPRLPRPRPRPKQEPRP | 0.113 |
| RRIRIRPPRLPRPRPRPKRWPRP | -0.0451 |
| RRIRIRPPRLPRPRPRPKSPPRP | -0.0939 |
| RRIRIRPPRLPRPRPRPKVAPRP | 0.283 |
| RRIRIRPPRLPRPRPRPKVVPRP | -0.00466 |
| RRIRIRPPRLPRPRPRPKWFPRP | -0.69 |
| RRIRIRPPRLPRPRPRPKWKPRP | -0.152 |
| RRIRIRPPRLPRPRPRPKWMPRP | -0.178 |
| RRIRIRPPRLPRPRPRPKWRPRP | 0.188 |
| RRIRIRPPRLPRPRPRPKYSPRP | -0.216 |
| RRIRIRPPRLPRPRPRPKYWPRP | -0.678 |
| RRIRIRPPRLPRPRPRPLCIPRP | -0.484 |
| RRIRIRPPRLPRPRPRPLCSPRP | -0.682 |
| RRIRIRPPRLPRPRPRPLDIPRP | -0.216 |
| RRIRIRPPRLPRPRPRPLELPRP | -0.461 |
| RRIRIRPPRLPRPRPRPLENPRP | -0.309 |
| RRIRIRPPRLPRPRPRPLFFPRP | -0.374 |
| RRIRIRPPRLPRPRPRPLKGPRP | -0.0404 |
| RRIRIRPPRLPRPRPRPLKLPRP | -0.838 |
| RRIRIRPPRLPRPRPRPLLCPRP | -0.462 |
| RRIRIRPPRLPRPRPRPLMSPRP | -0.372 |
| RRIRIRPPRLPRPRPRPLMTPRP | -0.233 |
| RRIRIRPPRLPRPRPRPLMYPRP | -0.513 |

| Sequence | shrunken log2 fold change |
| --- | --- |
| RRIRIRPPRLPRPRPRPLNAPRP | -0.107 |
| RRIRIRPPRLPRPRPRPLNDPRP | -0.351 |
| RRIRIRPPRLPRPRPRPLNTPRP | -0.876 |
| RRIRIRPPRLPRPRPRPLPWPRP | -0.019 |
| RRIRIRPPRLPRPRPRPLQGPRP | -0.182 |
| RRIRIRPPRLPRPRPRPLSQPRP | -0.111 |
| RRIRIRPPRLPRPRPRPLTNPRP | -0.572 |
| RRIRIRPPRLPRPRPRPLTYPRP | -0.495 |
| RRIRIRPPRLPRPRPRPLVWPRP | 0.0428 |
| RRIRIRPPRLPRPRPRPLWTPRP | -0.339 |
| RRIRIRPPRLPRPRPRPLYFPRP | -0.961 |
| RRIRIRPPRLPRPRPRPLYRPRP | -0.384 |
| RRIRIRPPRLPRPRPRPMANPRP | -0.104 |
| RRIRIRPPRLPRPRPRPMCNPRP | -0.0808 |
| RRIRIRPPRLPRPRPRPMCPPRP | -0.0137 |
| RRIRIRPPRLPRPRPRPMCTPRP | -0.0274 |
| RRIRIRPPRLPRPRPRPMERPRP | -0.0018 |
| RRIRIRPPRLPRPRPRPMETPRP | -0.0335 |
| RRIRIRPPRLPRPRPRPMFLPRP | -0.624 |
| RRIRIRPPRLPRPRPRPMFRPRP | -0.0542 |
| RRIRIRPPRLPRPRPRPMFVPRP | -0.279 |
| RRIRIRPPRLPRPRPRPMGGPRP | 0.38 |
| RRIRIRPPRLPRPRPRPMGKPRP | -0.0139 |
| RRIRIRPPRLPRPRPRPMHLPRP | -0.22 |
| RRIRIRPPRLPRPRPRPMILPRP | -0.131 |

| Sequence | shrunken log2 fold change |
| --- | --- |
| RRIRIRPPRLPRPRPRPMLCPRP | -0.0741 |
| RRIRIRPPRLPRPRPRPMNLPRP | -0.152 |
| RRIRIRPPRLPRPRPRPMNMPRP | -0.375 |
| RRIRIRPPRLPRPRPRPMQDPRP | -0.223 |
| RRIRIRPPRLPRPRPRPMRHPRP | 0.158 |
| RRIRIRPPRLPRPRPRPMRKPRP | 0.0125 |
| RRIRIRPPRLPRPRPRPMSAPRP | -0.205 |
| RRIRIRPPRLPRPRPRPMSCPRP | -0.141 |
| RRIRIRPPRLPRPRPRPMSLPRP | -0.0475 |
| RRIRIRPPRLPRPRPRPMSTPRP | -0.211 |
| RRIRIRPPRLPRPRPRPMSVPRP | 0.0466 |
| RRIRIRPPRLPRPRPRPMTFPRP | -0.0432 |
| RRIRIRPPRLPRPRPRPMWPPRP | 0.128 |
| RRIRIRPPRLPRPRPRPNACPRP | 0.00304 |
| RRIRIRPPRLPRPRPRPNAQPRP | -0.0106 |
| RRIRIRPPRLPRPRPRPNCMPRP | -0.287 |
| RRIRIRPPRLPRPRPRPNCTPRP | -0.663 |
| RRIRIRPPRLPRPRPRPNDRPRP | -0.0756 |
| RRIRIRPPRLPRPRPRPNEHPRP | -0.459 |
| RRIRIRPPRLPRPRPRPNFMPRP | 0.713 |
| RRIRIRPPRLPRPRPRPNFRPRP | -0.297 |
| RRIRIRPPRLPRPRPRPNFWPRP | -0.0359 |
| RRIRIRPPRLPRPRPRPNHMPRP | -0.361 |
| RRIRIRPPRLPRPRPRPNIAPRP | -0.407 |
| RRIRIRPPRLPRPRPRPNIHPRP | -0.936 |
